Here are results for one molecule from patent US20230340055A1 (published 2023).

In test [1] the target is T1, IL-2-Rα/β/γ on the murine CTLL-2 T lymphocyte cell line (murine, UniProt P01590 22-268; P16297 27-539; P34902 23-369).
T1 sequence (looked up) 1: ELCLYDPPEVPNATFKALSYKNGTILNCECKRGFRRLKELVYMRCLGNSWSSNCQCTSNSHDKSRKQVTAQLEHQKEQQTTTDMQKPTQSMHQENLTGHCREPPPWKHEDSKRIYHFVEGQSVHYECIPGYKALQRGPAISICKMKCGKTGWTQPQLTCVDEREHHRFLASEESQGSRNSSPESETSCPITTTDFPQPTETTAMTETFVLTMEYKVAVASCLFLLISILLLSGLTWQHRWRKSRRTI
T1 sequence (looked up) 2: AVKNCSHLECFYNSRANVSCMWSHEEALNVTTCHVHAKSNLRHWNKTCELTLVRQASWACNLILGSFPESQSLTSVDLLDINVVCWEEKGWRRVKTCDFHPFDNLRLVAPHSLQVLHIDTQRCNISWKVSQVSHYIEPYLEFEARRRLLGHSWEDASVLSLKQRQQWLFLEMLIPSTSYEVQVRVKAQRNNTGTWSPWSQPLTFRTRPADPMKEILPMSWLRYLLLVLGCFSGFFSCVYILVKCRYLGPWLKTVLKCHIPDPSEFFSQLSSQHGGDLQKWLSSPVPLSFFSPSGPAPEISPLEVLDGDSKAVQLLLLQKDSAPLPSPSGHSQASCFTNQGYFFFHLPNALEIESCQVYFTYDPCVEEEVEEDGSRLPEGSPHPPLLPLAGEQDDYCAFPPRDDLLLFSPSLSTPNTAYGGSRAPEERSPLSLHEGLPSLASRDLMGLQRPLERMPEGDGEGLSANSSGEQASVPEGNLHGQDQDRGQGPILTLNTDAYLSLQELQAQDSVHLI
T1 sequence (looked up) 3: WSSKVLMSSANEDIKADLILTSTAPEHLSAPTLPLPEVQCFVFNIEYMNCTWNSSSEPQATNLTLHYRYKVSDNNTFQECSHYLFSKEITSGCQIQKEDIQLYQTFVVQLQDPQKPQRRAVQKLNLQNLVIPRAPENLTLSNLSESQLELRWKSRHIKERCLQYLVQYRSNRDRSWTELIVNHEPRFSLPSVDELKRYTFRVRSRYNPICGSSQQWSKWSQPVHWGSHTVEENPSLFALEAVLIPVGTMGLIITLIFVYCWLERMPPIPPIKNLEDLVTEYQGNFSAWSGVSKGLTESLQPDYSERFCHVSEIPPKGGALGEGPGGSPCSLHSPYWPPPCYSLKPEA
Put plainly: cell-based or functional assay.

Test [2] concerns the target T2, Human IL-2 Receptor beta, Fc-Tag (Symansis, New Zealand) (human, UniProt P14784 27-240).
T2 construct: extracellular domain; Bought reagent; also called IL-2Rβ; IL-2Rβ-Fc; not shown: Fc-Tag (captured by anti-human IgG (Fc) antibody)
T2 sequence (looked up): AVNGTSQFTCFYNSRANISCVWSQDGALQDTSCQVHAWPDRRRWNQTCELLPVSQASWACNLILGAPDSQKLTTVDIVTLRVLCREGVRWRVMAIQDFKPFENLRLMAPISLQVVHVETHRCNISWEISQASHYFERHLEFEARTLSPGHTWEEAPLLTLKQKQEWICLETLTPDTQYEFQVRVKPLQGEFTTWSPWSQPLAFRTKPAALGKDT
Put plainly: SPR (Biacore T200), IL-2Rβ-Fc captured on anti-human IgG (Fc) CM5 chip, IL-2 as analyte, multi-cycle kinetics, 1:1 kinetic fit, 25 C. On the procedure:
For the determination of binding kinetics to IL-2Rβ the following chip preparation was used: Human IL-2 Receptor beta, Fc-Tag (Symansis, New Zealand) was diluted in HBS-EP running buffer (GE Healthcare, 10 mM HEPES, 150 mM NaCl, 3 mM EDTA, 0.05% Surfactant P20, pH 7.4) to around 0.25 µg/mL and immobilized at a flow rate of 50 µL/min for 60 s to achieve 300 - 330 response units (RU).
(50 µL/min flow rate, 60 s contact time, 300 s dissociation time). Double referenced data (subtracted data from the reference flow cell and the buffer only samples) was analysed via a kinetic fit (1:1 binding model) to determine KD, kₐ and kd. Regeneration after each cycle was performed with 3 M MgCl₂.
(In general: Surface plasmon resonance follows binding to a sensor surface in real time, without labels.)

In test [3] the target is T1, IL-2-Rα/β/γ on the murine CTLL-2 T …. The experiment in a line: cell-based or functional assay. This is another data set of the same source.
Test [4] addresses T3, IL-2Rβγ (dimeric intermediate affinity IL-2 receptor), human, on cells (human, UniProt P14784 27-551; P31785 23-369).
T3 sequence (looked up) 1: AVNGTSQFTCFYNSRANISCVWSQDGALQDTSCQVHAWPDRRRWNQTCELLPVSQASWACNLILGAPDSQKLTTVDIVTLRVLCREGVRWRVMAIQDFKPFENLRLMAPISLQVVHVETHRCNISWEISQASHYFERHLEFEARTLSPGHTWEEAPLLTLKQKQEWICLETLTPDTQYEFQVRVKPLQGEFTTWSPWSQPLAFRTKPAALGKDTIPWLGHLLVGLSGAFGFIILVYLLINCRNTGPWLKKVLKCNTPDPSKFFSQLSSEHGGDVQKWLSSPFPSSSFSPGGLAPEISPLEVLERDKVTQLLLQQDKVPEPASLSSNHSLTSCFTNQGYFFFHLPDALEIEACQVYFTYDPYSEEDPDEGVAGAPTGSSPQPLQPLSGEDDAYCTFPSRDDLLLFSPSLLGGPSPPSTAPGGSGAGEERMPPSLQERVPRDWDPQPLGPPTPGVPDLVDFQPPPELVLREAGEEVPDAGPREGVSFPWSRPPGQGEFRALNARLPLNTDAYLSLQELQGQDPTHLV
T3 sequence (looked up) 2: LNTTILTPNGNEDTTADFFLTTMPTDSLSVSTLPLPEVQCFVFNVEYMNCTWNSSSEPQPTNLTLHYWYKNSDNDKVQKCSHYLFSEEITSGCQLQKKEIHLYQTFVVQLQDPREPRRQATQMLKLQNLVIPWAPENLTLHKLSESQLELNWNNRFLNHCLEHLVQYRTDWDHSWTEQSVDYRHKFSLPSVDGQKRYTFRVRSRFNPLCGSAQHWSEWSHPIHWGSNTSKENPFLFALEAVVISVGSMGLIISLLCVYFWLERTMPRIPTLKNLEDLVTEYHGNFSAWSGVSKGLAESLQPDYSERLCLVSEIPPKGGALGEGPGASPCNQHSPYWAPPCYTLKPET
Put plainly: cell-based or functional assay.

B1: protein 6 (ligand)
chain: APTSSSTKKTQLQLEHLLLDLQMILNGINNYKNPKLTFGNSTKFYMPKKATELKHLQCLEEELKPLEEVLNLAQSKNFHLRPRDLISNINVIVLELKGSETTFMCEYADETATIVEFLNRWITFSQSIISTLT
modifications: glycosylated (same sequence with the N-glycosylation motif FGNST as protein 1f); glycan sites not analysed separately for protein 6
Take B1: the “ratio of Ratio protein 6 to Ratio protein 5a (EC50 CTLL-2 cells / EC50 HH cells)” value in test [1] is more than 250. Also, the Kd (commonly the equilibrium constant for the complex coming apart) in test [2] turned out to be 740 nM. Moreover, in test [3], the “EC50 CTLL-2, STAT5 phosphorylation” value was 3.39 µg/mL and the “Ratio (E50 CTLL-2 cells/EC50 HH cell)” value is 35.1. Moreover, in test [4], the “EC50 HH cells, STAT5 phosphorylation” value was 0.0966 µg/mL.
